Assay results reported in patent US20220064275A1 (SCHOLAR ROCK, published 2022).

How the values were obtained:
[1] = target: T1, human LTBP1-proTGFβ1 complex (human, UniProt Q14766 873-1507); assay: BLI (Octet)
T1 construct: range 873-1507; biotinylated in Octet and MSD-SET; also called hLTBP1-proTGFβ1; hLTBP1

[2] = target: T2, human LTBP3-proTGFβ1 complex (human, UniProt Q9NS15 866-1039); assay: BLI (Octet)
T2 construct: range 866-1039; also called hLTBP3-proTGFβ1; hLTBP3

[3] = target: T3, human GARP-proTGFβ1 complex (human, UniProt Q14392 20-627; P01137 30-390); assay: BLI (Octet)
T3 construct: also called hGARP-proTGFβ1; hGARP

[4] = target: T4, human LRRC33-proTGFβ1 complex (human, UniProt Q86YC3 19-650; P01137 30-390); assay: BLI (Octet)
T4 construct: also called hLRRC33-proTGFβ1; hLRRC33
T4 sequence (Q86YC3 other isoform, or with tags, fused parts or gaps limits assumed, chain 1 of 2): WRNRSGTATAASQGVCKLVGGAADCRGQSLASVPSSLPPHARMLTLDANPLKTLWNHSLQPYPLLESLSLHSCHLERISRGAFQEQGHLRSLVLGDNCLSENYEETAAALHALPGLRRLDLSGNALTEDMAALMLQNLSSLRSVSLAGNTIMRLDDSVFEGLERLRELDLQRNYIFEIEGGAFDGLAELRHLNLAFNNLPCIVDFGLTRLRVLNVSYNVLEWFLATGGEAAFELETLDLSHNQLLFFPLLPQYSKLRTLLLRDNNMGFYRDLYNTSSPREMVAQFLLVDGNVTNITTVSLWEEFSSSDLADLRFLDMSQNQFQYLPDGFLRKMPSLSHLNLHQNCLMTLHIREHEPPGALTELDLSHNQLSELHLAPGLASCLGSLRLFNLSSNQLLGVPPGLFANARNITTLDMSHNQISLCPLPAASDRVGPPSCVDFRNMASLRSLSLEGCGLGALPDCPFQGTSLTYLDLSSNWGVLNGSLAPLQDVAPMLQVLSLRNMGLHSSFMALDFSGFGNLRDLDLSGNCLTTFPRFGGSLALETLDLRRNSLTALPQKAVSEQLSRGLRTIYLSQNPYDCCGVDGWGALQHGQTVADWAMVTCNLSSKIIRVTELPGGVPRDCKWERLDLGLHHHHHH
T4 sequence (P01137 30-390 limits assumed, chain 2 of 2): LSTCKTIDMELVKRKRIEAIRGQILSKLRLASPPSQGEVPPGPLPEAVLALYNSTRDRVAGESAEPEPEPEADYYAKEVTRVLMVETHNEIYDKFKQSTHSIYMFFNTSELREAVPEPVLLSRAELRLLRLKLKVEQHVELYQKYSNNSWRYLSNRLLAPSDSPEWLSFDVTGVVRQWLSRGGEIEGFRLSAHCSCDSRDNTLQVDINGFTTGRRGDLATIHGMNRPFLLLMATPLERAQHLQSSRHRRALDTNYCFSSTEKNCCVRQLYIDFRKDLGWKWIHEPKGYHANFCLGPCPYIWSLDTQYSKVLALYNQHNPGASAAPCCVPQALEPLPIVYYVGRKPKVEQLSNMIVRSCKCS

[5] = target: T5, human proTGFβ1 C4S (human, UniProt P01137 30-390); assay: method not described
T5 construct: Small latent complex without presenting molecule; the cysteine that links to presenting molecules is changed to serine; also called small latent complex proTGFβ1 C4S; latent TGFβ1
T5 sequence (P01137 other isoform, or with tags, fused parts or gaps): as the sequence (P01137 30-390 limits assumed, chain 2 of 2) above, with C4S counted along it

[6] = target: T6, human mature TGFβ1 growth factor (human, UniProt P01137 279-390); assay: in vitro binding assay
T6 construct: Bought from R&D Systems; also called active (mature) TGFβ1 growth factor; free TGFβ1 growth factor
T6 sequence (P01137 279-390 limits assumed): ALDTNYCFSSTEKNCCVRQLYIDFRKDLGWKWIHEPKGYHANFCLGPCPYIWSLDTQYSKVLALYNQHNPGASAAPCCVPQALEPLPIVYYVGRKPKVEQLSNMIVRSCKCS

[7] = target: T2, human LTBP3-proTGFβ1 complex; assay: MSD-SET, solution equilibrium titration
Experimental: (§1) MSD-SET assays were performed to measure affinities of the antibodies at equilibrium. Briefly, each test antibody was diluted 3-5 fold and samples were mixed with biotinylated antigen in a 48-well dish. The SET samples were equilibrated for 20-24 hours at room temperature. Meanwhile, a capture plate was coated with IgG (20 nM) and incubated overnight at 4° C. or 30 minutes at room temperature, followed by a blocking step with 5% BSA. After the capture plate was washed three times, SET samples were added and incubated for 150 seconds. The plate was washed once to remove unbound complexes. 250 ng/ml SA-Sulfotag was added then washed 3 times. 2× Read Buffer was added, and signals from the labeled bound complexes were read with the use of QuickPlex™ SQ 120 instrument.
(§2) As an example, MSD standard plates (MSD) were coated with a 20 nM solution of monoclonal antibody in PBS for 30 min at room temperature or overnight at 4° C. […] After 20-24 hours of equilibration, the antibody-coated plate was blocked with Blocking Buffer A (MSD) for 30 minutes at room temperature and washed with wash buffer (PBS, 0.1% BSA, 0.05% Tween-20) before adding the equilibrated antibody-antigen complexes to the plate for exactly 2.5 minutes. The plate was washed again with wash buffer before adding 250 ng/ml SULFO-TAG-labeled streptavidin secondary reagent (MSD) in PBS with 0.1% BSA. After washing with wash buffer, plates were read in MSD read buffer (MSD) using the MESO QuickPlex SQ 120 (MSD). The binding data were processed by nonlinear curve fitting in Prism 7 software (Graphpad) to calculate equilibrium binding KD values.

[8] = target: T7, murine LTBP1-proTGFβ1 complex (mouse, UniProt Q8CG19 339-1712; P04202 30-390, limits assumed); assay: MSD-SET, solution equilibrium titration
T7 construct: also called mLTBP1-proTGFβ1
Experimental: as §1, §2

[9] = target: T8, murine GARP-proTGFβ1 complex (mouse, UniProt G3XA59 18-628; P04202 30-390); assay: MSD-SET, solution equilibrium titration
T8 construct: Soluble murine complex; also called mGARP-proTGFβ1
Experimental: as §1, §2

[10] = target: T9, murine LRRC33-proTGFβ1 complex (mouse, UniProt Q8BMT4 20-651, limits assumed); assay: MSD-SET, solution equilibrium titration
T9 construct: also called mLRRC33-proTGFβ1
Experimental: as §1, §2

[11] = target: rat LTBP1-proTGFβ1 complex (rat, UniProt Q00918 339-1712; P17246 30-390); assay: MSD-SET, solution equilibrium titration
rat LTBP1-proTGFβ1 complex, sequence (Q00918 339-1712, chain 1 of 2): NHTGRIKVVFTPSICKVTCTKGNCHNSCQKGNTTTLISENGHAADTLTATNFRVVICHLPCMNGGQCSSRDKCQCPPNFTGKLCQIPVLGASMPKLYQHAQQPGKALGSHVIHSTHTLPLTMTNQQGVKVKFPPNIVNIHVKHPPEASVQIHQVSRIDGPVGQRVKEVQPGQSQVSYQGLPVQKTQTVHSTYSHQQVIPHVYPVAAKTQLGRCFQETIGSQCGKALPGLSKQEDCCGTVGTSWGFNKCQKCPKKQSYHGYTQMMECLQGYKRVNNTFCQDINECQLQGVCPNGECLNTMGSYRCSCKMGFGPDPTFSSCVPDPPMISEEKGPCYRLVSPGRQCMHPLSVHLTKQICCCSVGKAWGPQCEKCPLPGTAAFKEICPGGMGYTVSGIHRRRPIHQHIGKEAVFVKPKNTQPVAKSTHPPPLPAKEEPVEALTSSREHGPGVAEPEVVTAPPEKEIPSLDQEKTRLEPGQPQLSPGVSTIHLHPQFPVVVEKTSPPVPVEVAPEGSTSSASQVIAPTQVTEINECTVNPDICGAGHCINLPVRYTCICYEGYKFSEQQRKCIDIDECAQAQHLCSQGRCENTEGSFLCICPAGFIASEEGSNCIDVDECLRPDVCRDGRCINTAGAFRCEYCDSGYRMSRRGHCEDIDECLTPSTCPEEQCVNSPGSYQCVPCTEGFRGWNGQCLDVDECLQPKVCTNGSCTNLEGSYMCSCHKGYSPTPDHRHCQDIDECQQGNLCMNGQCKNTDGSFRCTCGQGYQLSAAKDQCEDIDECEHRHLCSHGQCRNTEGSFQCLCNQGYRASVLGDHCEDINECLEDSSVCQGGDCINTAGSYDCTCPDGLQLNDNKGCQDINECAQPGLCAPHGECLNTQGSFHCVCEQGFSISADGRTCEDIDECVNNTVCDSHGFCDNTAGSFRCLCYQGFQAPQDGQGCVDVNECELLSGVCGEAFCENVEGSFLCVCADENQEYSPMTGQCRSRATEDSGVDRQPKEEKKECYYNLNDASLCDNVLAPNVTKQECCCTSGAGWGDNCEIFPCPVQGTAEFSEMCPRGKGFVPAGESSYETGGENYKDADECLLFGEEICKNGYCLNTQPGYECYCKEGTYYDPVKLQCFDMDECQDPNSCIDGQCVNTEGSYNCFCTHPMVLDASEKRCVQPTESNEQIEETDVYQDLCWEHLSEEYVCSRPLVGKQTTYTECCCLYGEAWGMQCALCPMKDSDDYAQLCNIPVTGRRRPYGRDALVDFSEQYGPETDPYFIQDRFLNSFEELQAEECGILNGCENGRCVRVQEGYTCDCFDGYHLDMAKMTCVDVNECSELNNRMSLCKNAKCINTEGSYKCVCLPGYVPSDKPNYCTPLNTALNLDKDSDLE
rat LTBP1-proTGFβ1 complex, sequence (P17246 30-390, chain 2 of 2): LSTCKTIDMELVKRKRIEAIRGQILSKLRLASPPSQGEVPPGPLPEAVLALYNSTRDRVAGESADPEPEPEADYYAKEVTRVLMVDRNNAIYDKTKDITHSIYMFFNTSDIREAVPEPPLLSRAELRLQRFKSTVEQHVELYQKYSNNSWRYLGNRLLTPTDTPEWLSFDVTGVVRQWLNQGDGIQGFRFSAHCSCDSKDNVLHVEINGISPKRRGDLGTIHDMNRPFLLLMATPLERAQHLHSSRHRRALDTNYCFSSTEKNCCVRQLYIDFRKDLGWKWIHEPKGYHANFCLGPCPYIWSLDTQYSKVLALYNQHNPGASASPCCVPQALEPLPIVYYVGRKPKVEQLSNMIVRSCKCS
Experimental: as §1, §2

[12] = target: rat LRRC33-proTGFβ1 complex (rat, UniProt Q5BK65 25-650; P17246 30-390); assay: MSD-SET, solution equilibrium titration
Experimental: as §1, §2

[13] = target: T10, cynomolgus LTBP1-proTGFβ1 complex (cynomolgus monkey); assay: MSD-SET, solution equilibrium titration
T10 construct: also called Cyno LTBP1-proTGFβ1
Experimental: as §1, §2

[14] = target: T11, cynomolgus LRRC33-proTGFβ1 complex (cynomolgus monkey, UniProt A0A7N9CII2 32-663); assay: MSD-SET, solution equilibrium titration
T11 construct: also called Cyno LRRC33-proTGFβ1
Experimental: as §1, §2

[15] = target: T12, human mature TGFβ2 growth factor (human, UniProt P61812 303-414); assay: in vitro binding assay (BLI protocol at p-1008)
T12 construct: mature
T12 sequence (looked up): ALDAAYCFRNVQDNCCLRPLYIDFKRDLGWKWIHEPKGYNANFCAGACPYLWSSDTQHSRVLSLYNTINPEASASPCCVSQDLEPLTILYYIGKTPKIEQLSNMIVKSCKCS
Experimental: (§3) AR2G biosensors were first allowed to hydrate in water offline for at least 10 minutes before initiation of the experiment. Upon initiation of the experiment, AR2G tips were equilibrated in water for 1 minute. Then, the tips were moved into a freshly prepared activation solution (18 parts water, 1 part 400 mM EDC (1-Ethyl-3-[3-dimethylaminopropyl] carbodiimide hydrochloride), and 1 part 200 mM sulfo-NHS (N-hydroxysulfosuccinimide)) for 5 minutes. Recombinant TGFβ protein (10 ug/mL in 10 mM sodium acetate buffer pH 5) was coupled to the activated tips for 3 minutes before quenching with ethanolamine pH 8.5 for 15 minutes. […] Finally, a ten minute dissociation was performed.

[16] = target: T13, human mature TGFβ3 growth factor (human, UniProt P10600 301-412); assay: in vitro binding assay (BLI protocol at p-1008)
T13 construct: mature
T13 sequence (looked up): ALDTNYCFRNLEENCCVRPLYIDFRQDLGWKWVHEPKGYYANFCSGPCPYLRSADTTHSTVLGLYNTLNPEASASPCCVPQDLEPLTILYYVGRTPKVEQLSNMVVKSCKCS
Experimental: as §3

[17] = target: T14, murine LTBP3-proTGFβ1 complex (mouse, UniProt Q61810 41-1245; P04202 30-390, limits assumed); assay: MSD-SET, solution equilibrium titration; MSD-SET, Table 21, mouse complex
T14 construct: also called mLTBP3-proTGFβ1

[18] = target: T4, human LRRC33-proTGFβ1 complex; assay: MSD-SET solution equilibrium titration; Ab6 titrated against biotinylated hLRRC33-proTGFβ1, readout % free antigen
Experimental: as §1
as §2, with “The plate was washed again with wash buffer before adding 250 ng/ml SULFO-TAG-labeled streptavidin secondary reagent (MSD) in PBS with 0.1% BSA.” left out, “The binding data were processed by nonlinear curve fitting in Prism 7 software (Graphpad) to calculate equilibrium binding KD values.” left out

T2 sequence (Q9NS15 866-1039 limits assumed, chain 1 of 2): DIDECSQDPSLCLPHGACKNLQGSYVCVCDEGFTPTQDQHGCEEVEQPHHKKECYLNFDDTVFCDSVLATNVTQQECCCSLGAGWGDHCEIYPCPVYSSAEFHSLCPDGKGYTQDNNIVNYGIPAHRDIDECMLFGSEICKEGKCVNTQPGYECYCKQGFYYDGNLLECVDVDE
T2 sequence (chain, as listed by the source limits assumed, chain 2 of 2): as the sequence (P01137 30-390 limits assumed, chain 2 of 2) above
T1 sequence (Q14766 873-1507 limits assumed, chain 1 of 2): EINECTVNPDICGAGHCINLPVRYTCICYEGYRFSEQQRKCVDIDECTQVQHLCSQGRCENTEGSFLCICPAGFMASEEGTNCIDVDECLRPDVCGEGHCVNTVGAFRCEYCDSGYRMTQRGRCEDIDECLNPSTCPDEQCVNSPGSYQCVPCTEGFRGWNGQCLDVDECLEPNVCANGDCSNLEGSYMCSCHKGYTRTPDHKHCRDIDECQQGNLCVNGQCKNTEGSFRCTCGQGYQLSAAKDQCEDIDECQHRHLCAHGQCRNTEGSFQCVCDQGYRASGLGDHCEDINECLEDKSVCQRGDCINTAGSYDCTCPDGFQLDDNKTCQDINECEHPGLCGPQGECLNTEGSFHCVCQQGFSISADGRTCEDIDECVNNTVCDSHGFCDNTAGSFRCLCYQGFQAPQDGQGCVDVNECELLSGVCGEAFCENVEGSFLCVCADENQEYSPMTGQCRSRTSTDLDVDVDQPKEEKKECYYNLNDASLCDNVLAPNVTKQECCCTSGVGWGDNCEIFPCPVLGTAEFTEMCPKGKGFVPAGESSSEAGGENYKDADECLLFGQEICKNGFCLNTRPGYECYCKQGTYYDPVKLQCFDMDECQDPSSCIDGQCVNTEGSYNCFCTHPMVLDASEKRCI
T1 sequence (chain, as listed by the source limits assumed, chain 2 of 2): as the sequence (P01137 30-390 limits assumed, chain 2 of 2) above

B1: Ab6 (antibody, human IgG4 S228P, kappa, V domains shown)
VH: EVQLVESGGGLVQPGGSLRLSCTASGFTFSSFSMDWVRQAPGKGLEWVSYISPSADTIYYADSVKGRFTISRDNAKNTLYLQMNSLRAEDTAVYYCARGVLDYGDMLMPWGQGTLVTVSS
VL: DIQMTQSPSSLSASVGDRVTITCQASQDITNYLNWYQQKPGKAPKLLIYDASNLETGVPSRFSGSGSGTDFTFTISSLQPEDIATYYCQQADNHPPWTFGGGTKVEIKR
Kd [1]: 0.207 nM | Kd [2]: 0.123 nM | Kd [3]: 0.404 nM | Kd [4]: 0.336 nM | binding result [5]: binds | binding result [6]: no binding | Kd [7]: 0.029 nM | Kd [8]: 0.024 nM | Kd [9]: 0.021 nM | Kd [10]: 0.048 nM | Kd [11]: 0.035 nM | Kd [12]: 0.086 nM | Kd [13]: 0.039 nM | Kd [14]: 0.093 nM | binding result [15]: no binding | binding result [16]: no binding | Kd [17]: 0.022 nM | IC50 (read off the curve) [18]: ~0.07 nM
